In article PMC3950707:

Assays:
LexA [1] = test: single-molecule FRET (smTIRF), koff/kon; conditions: smTIRF and PIFE on DNA: 10 mM Tris-HCl pH 8.0, 130 mM NaCl, 10% glycerol, 0.005% Tween20, 1% BME (0.1 mg/ml BSA in smTIRF and LexA PIFE), nucleosome smTIRF and …
[2] = system: Gal4(1-147) (Saccharomyces cerevisiae); test: single-molecule PIFE intensity histograms (smTIRF); conditions: Hill 2; Fig 4 legend gives 5 +/- 1; koff << 5e-4 s-1; internal aminoC6dT in both primers; smTIRF and PIFE on DNA: 10 mM Tris-HCl pH 8.0, 130 mM NaCl, 10% glycerol, 0.005% Tween20, 1% BME (0.1 mg/ml BSA in smTIRF and LexA PIFE); nucleosome smTIRF and …
[3] = system: Gal4(1-147) (Saccharomyces cerevisiae); test: EMSA; conditions: 200 pM DNA (titration-limited), Hill 1.5; legend 240 +/- 10; poly-dIdC; internal aminoC6dT in both primers; smTIRF and PIFE on DNA: 10 mM Tris-HCl pH 8.0, 130 mM NaCl, 10% glycerol, 0.005% Tween20, 1% BME (0.1 mg/ml BSA in smTIRF and LexA PIFE); nucleosome smTIRF and …
[4] = system: Gal4(1-147) (Saccharomyces cerevisiae); test: ensemble PIFE; conditions: 100 pM DNA (titration-limited), Hill 1.5; legend error 5; internal aminoC6dT in both primers; smTIRF and PIFE on DNA: 10 mM Tris-HCl pH 8.0, 130 mM NaCl, 10% glycerol, 0.005% Tween20, 1% BME (0.1 mg/ml BSA in smTIRF and LexA PIFE); nucleosome smTIRF and …
LexA [5] = test: ensemble PIFE; conditions: 0.2 nM DNA, non-cooperative fit; aminoC6 at 5' end; aminoC6dT in reverse primer; smTIRF and PIFE on DNA: 10 mM Tris-HCl pH 8.0, 130 mM NaCl, 10% glycerol, 0.005% Tween20, 1% BME (0.1 mg/ml BSA in smTIRF and LexA PIFE); nucleosome smTIRF and …
LexA [6] = test: single-molecule PIFE (smTIRF), koff/kon; conditions: aminoC6 at 5' end; aminoC6dT in reverse primer; smTIRF and PIFE on DNA: 10 mM Tris-HCl pH 8.0, 130 mM NaCl, 10% glycerol, 0.005% Tween20, 1% BME (0.1 mg/ml BSA in smTIRF and LexA PIFE); nucleosome smTIRF and …
[7] = system: Gal4(1-147) (Saccharomyces cerevisiae); test: single-molecule FRET (smTIRF), koff/kon; conditions: aminoC6 at 5' end; smTIRF and PIFE on DNA: 10 mM Tris-HCl pH 8.0, 130 mM NaCl, 10% glycerol, 0.005% Tween20, 1% BME (0.1 mg/ml BSA in smTIRF and LexA PIFE); nucleosome smTIRF and …

LexA dinucleosome array was tested, and the Kd (LexA [1]; internal aminoC6dT) was 40000 nM.
dsDNA-Gal4 showed a K half [2] of 5 pM, a K half [3] of 0.242 nM and a K half [4] of 0.042 nM.
dsDNA-LexA was tested, and the Kd (LexA [5]) was 0.13 nM and the Kd (LexA [6]) was 0.07 nM.
nucDNA-Gal4 mononucleosome was tested, and the Kd [7] was 0.051 nM.
For nucDNA-LexA mononucleosome, the Kd (LexA [1]; aminoC6 at 5' end) was 40000 nM.
